Reference: patent US20230295327A1 (KANAPH THERAPEUTICS, published 2023)

T1: human CD20 on Raji and Ramos cells (human, UniProt P11836 1-297)
T1 sequence (looked up): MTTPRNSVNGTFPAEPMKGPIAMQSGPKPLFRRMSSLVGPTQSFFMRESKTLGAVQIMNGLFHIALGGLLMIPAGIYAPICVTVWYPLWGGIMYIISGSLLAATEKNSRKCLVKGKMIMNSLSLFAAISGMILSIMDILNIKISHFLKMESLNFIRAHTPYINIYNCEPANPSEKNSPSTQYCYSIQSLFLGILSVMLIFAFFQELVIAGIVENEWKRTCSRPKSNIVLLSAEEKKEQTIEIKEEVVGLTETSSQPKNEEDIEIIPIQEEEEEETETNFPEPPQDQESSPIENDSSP


Assays:
[1] = biological target: T1, human CD20 on Raji and Ramos cells; test: cell-based or functional assay
[2] = biological target: IL-12 receptor of human T cells (human, UniProt P42701 24-662; Q99665 24-862); test: cell-based or functional assay
Sequence of IL-12 receptor of human T cells (Q99665 24-862, chain 2 of 2, other chains not shown): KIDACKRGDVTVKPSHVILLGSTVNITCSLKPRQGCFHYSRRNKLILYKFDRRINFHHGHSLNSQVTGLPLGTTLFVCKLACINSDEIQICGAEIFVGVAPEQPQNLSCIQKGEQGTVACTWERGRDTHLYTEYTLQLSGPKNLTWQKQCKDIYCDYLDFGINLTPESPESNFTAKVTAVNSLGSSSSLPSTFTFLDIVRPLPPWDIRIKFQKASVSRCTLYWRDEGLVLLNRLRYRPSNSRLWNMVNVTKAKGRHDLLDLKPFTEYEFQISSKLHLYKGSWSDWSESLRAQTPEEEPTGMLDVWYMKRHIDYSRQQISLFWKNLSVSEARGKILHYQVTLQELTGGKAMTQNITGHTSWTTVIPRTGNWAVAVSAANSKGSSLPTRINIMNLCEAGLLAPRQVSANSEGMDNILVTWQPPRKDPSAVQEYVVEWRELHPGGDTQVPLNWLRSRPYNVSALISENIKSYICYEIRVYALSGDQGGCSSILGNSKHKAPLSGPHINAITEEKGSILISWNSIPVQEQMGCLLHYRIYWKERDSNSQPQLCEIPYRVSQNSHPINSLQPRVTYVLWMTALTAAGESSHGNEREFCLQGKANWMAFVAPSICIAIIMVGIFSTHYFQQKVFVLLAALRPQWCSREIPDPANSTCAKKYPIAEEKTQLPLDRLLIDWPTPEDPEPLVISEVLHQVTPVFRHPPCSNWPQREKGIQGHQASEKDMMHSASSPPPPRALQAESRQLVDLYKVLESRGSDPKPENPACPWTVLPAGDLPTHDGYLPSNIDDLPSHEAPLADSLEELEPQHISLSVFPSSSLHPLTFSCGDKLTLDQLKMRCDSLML

Binder	ADCC Reporter Bioassay on Raji target cells, 50% effective concentration (EC50) [1] [µg/mL]	p-STAT4 (Tyr693) AlphaLISA in activated human T cells, EC50 [2] [ng/mL]
Rituximab (anti-hu CD20 monoclonal antibody) (antibody, human IgG1, kappa, V domains shown) VH: QVQLQQPGAELVKPGASVKMSCKASGYTFTSYNMHWVKQTPGRGLEWIGAIYPGNGDTSYNQKFKGKATLTADKSSSTAYMQLSSLTSEDSAVYYCARSTYYGGDWYFNVWGAGTTVTVSA VL: QIVLSQSPAILSASPGEKVTMTCRASSSVSYIHWFQQKPGSSPKPWIYATSNLASGVPVRFSGSGSGTSYSLTISRVEAEDAATYYCQQWTSNPPTFGGGTKLEIKR	31.1	
T2.01 (anti-hu CD20/hu IL-12, hu IgG1) (bispecific antibody) heavy: not shown light: QIVLSQSPAILSASPGEKVTMTCRASSSVSYIHWFQQKPGSSPKPWIYATSNLASGVPVRFSGSGSGTSYSLTISRVEAEDAATYYCQQWTSNPPTFGGGTKLEIKRTVAAPSVFIFPPSDEQLKSGTASVVCLLNNFYPREAKVQWKVDNALQSGNSQESVTEQDSKDSTYSLSSTLTLSKADYEKHKVYACEVTHQGLSSPVTKSFNRGEC not shown		0.555
T2.02 (anti-hu CD20/hu IL-12 mut1, hu IgG1) (bispecific antibody) heavy: not shown light: QIVLSQSPAILSASPGEKVTMTCRASSSVSYIHWFQQKPGSSPKPWIYATSNLASGVPVRFSGSGSGTSYSLTISRVEAEDAATYYCQQWTSNPPTFGGGTKLEIKRTVAAPSVFIFPPSDEQLKSGTASVVCLLNNFYPREAKVQWKVDNALQSGNSQESVTEQDSKDSTYSLSSTLTLSKADYEKHKVYACEVTHQGLSSPVTKSFNRGEC not shown		1.55
